Reference: patent publication US20210145750A1, “COMPLEX, pH SENSITIVE COMPOSITION INCLUDING COMPLEX, AND METHOD FOR PRODUCING COMPLEX” (TERUMO KABUSHIKI KAISHA, priority 2017, published 2021)
Several values for one entry are separate records, joined by “and”; a condition that tells them apart may be missing. Identical values can stand only once.

What was measured:
[1] = Leaching test: leakage (membrane disruptive function); type: biochemical; settings: sample not acid-aggregated
Procedure: Herein, the term “membrane disruptive function” means a function of causing leakage in a leaching test. Herein, the leaching test in the present specification is a test in which liposomes (dispersion) including an aqueous solution containing a quenching substance and a fluorescent substance, and an evaluation sample dispersion such as a solution containing a complex (aggregate of a pH sensitive carrier supporting a physiologically active substance) are added to an aqueous solution whose pH is adjusted to a predetermined level, followed by incubating the aqueous solution at 37° C. for 90 minutes or 30 minutes and measuring the fluorescence of the aqueous solution. According to this method, an amount of a fluorescent substance leached out from the liposomes can be measured, from which the liposome membrane disruptive function of the complex can be confirmed.
Herein, the expression “to develop a membrane disruptive function promoting effect” means to satisfy both of requirements (1) and (2): (1) in the leaching test, a leakage at a predetermined pH that is less than a physiological pH increases compared to a leakage at the physiological pH and the amount of increase is larger than the amount of increase in a case where the pH sensitive compound alone is subjected to the test; and (2) in the leaching test at a predetermined pH less than the physiological pH, a leakage of the complex is more than the sum of a leakage of the pH sensitive compound alone and a leakage of the amphipathic substance alone. More specifically, to develop a membrane disruptive function promoting effect means that, in the leaching test at a pH of 7.4 and at a pH of 5.0 or 4.5, a leakage Lc of the complex, a leakage La of the pH sensitive compound alone, and a leakage Lb of the amphipathic substance alone satisfy both the following relations. That is, the above (1) is represented by the following Formula (1) and the above (2) is represented by the following Formula (2). […]
3,000 nmol of EYPC (egg yolk phosphatidylcholine) dissolved in chloroform was measured and introduced into a 10-mL pear-shaped flask, and a thin film was produced using a rotary evaporator (BuCHI). […]
Meanwhile, the case of an EYPC liposome dispersion liquid only was designated as 0%, the value obtained in a case in which 30 μL of Triton-X100 diluted to ten time was added was designated as 100%, and the leakage was calculated.
Specifically, the leakage was calculated according to the following formula 4. In the following formula, the fluorescence intensity thus measured was designated as L, the fluorescence intensity of only the EYPC liposome dispersion liquid encapsulating a fluorescent substance was designated as L0, and the fluorescence intensity in the case of having Triton-X100 added thereto was designated as L100.

[2] = Integration of peptide with pH sensitive carrier: absorbance at 750 nm (Lowry kit), 0.22-μm filtration; type: physicochemical; settings: for peptide-derived absorbance: mixed liquid with the pH sensitive carrier at a neutral pH; for absorbance of the solution after filtration: pH lowered to obtain an aggregate of the pH sensitive carrier
Procedure: (§1) When a liquid including the complex obtained as described above is treated with a filter (for example, having a pore size of 0.22 μm), and the concentrations of the physiologically active substance before and after a filtration treatment are measured, the integration ratio of the physiologically active substance (proportion of the amount of the physiologically active substance incorporated into an aggregate of the pH sensitive carrier with respect to the total amount of the physiologically active substance added) can be checked. Here, the concentration of the physiologically active substance can be measured by any known method. Meanwhile, in the present specification, the integration efficiency of the physiologically active substance is defined as a value calculated by the following formula 3 based on the measurement of the absorbance before and after a filtration treatment. At this time, the absorbance may be measured at a wavelength corresponding to the absorption wavelength range of the physiologically active substance (for example, 280 nm in the case of a protein or a peptide, and 260 nm in the case of a nucleic acid). Alternatively, the liquid is colored using a commercially available quantification kit, and then the absorbance may be measured at a wavelength that is recommended by the protocol of the kit.
(§2) Integration efficiency of physiologically active substance (%)=[(Absorbance before filtration treatment−Absorbance after filtration treatment)/(Absorbance before filtration treatment)]×100 (Formula 3)
[…] and […] were used as peptides, and the concentration of the peptide was adjusted to 0.8 mg/mL. […] The pH at the time of preparing an aggregate of the pH sensitive carrier was adjusted to 4 using 1 N sulfuric acid. The time for standing was set to 2 hours. The mixed liquid was passed through a 0.22-μm filter, the liquid before and after filtration was colored using a peptide quantification kit (Lowry kit, manufactured by NACALAI TESQUE, INC.), and measurement of the absorbance at a wavelength of 750 nm was carried out.

[3] = Integration of OVA with pH sensitive carrier: absorbance at 595 nm (CBB) before and after 0.22-μm filtration; type: physicochemical; settings: for integration efficiency for OVA based on the change in the absorbance: DLPC 1,000 nmol in 1 mL
Procedure: as §1, §2
2. Next, separation of the protein was checked. PBS at pH 7.4 containing OVA was passed through a 0.22-μm filter similarly to the previous operation. The liquid before and after the filtration treatment was colored using a protein quantification kit (protein assay CBB solution, manufactured by NACALAI TESQUE, INC.), and measurement of the absorbance at a wavelength of 595 nm was performed. […] Meanwhile, the absorbance was converted to concentration using a calibration curve, and while the OVA concentration before filtration was 0.81 mg/mL, the OVA concentration after filtration was 0.79 mg/mL. The concentrations thus obtained were consistent with the feed concentration (FIG. 3B). It was confirmed that free OVA all escaped without being captured by the filtration. Therefore, it was considered that integration of the aggregate of the pH sensitive carrier and the protein can be evaluated by measuring the protein concentrations before and after passage through a filter (pore diameter 0.22 μm).
OVA was mixed with a dispersion liquid of the pH sensitive carrier, and a mixed liquid was prepared. Subsequently, the mixed liquid was passed through a filter by a test method similar to section 2. of Experiment 2, and the change in the absorbance (corresponding to the OVA concentration) before and after a filtration treatment was investigated. […]

[4] = aggregate of DLPC-deoxycholic acid carrier, pH 4, 2 hours
[5] = OVA 0.8 mg/mL, 1,000 nmol amphiphilic substance and 1,600 nmol pH sensitive compound in 1 mL, pH 4, 1 hour, listed as OVA only
[6] = PBS at pH 7.4, no carrier, from calibration curve

CCCCCCCCCCCC(=O)OC[C@H](COP(=O)([O-])OCC[N+](C)(C)C)OC(=O)CCCCCCCCCCC [DLPC alone, 1,2-dilauroyl-sn-glycero-3-phosphatidylcholine]
Leakage ([1]; leaching test at pH 5.0): 2.587% and 4.587%
Leakage ([1]; leaching test at pH 7.4): 1.188% and 2.688%

RGPESRLL
peptide-derived absorbance ([2]; RGPESRLL): 1.40
absorbance of the solution after filtration ([2]; RGPESRLL): 0.82
integration efficiency of the RGPESRLL peptide based on the change in absorbance [2, 4]: about 41%

SIINFEKL
integration efficiency of the SIINFEKL peptide based on the change in absorbance [2, 4]: about 27%
peptide-derived absorbance [2]: 0.44
absorbance of the solution after filtration [2]: 0.32

B1: OVA: Model protein: OVA (molecular weight 45 kDa, manufactured by Sigma-Aldrich Corp.) (protein, UniProt P01012 2-386, looked up)
Ovalbumin: GSIGAASMEFCFDVFKELKVHHANENIFYCPIAIMSALAMVYLGAKDSTRTQINKVVRFDKLPGFGDSIEAQCGTSVNVHSSLRDILNQITKPNDVYSFSLASRLYAEERYPILPEYLQCVKELYRGGLEPINFQTAADQARELINSWVESQTNGIIRNVLQPSSVDSQTAMVLVNAIVFKGLWEKAFKDEDTQAMPFRVTEQESKPVQMMYQIGLFRVASMASEKMKILELPFASGTMSMLVLLPDEVSGLEQLESIINFEKLTEWTSSNVMEERKIKVYLPRMKMEEKYNLTSVLMAMGITDVFSSSANLSGISSAESLKISQAVHAAHAEINEAGREVVGSAEAGVDAASVSEEFRADHPFLFCIKHIATNAVLFFGRCVSP
Absorbance after filtration (corresponding to the OVA concentration) [3, 5]: 0.651 and 0.533
Absorbance before filtration (corresponding to the OVA concentration) [3, 5]: 0.661 and 0.588
OVA concentration after filtration [3, 6]: 0.79 mg/mL
OVA concentration before filtration [3, 6]: 0.81 mg/mL
Absorbance at 595 nm before filtration ([3]; PBS at pH 7.4 containing OVA, no carrier): 0.616
Absorbance at 595 nm after filtration ([3]; PBS at pH 7.4 containing OVA, no carrier, 0.22-μm filter): 0.601
integration efficiency for OVA based on the change in the absorbance ([3]; carrier with deoxycholic acid 400 nmol/mL, pH 4): about 42%
integration efficiency for OVA based on the change in the absorbance ([3]; carrier with deoxycholic acid 1,600 nmol/mL, pH 4): about 60%
integration efficiency for OVA based on the change in the absorbance ([3]; carrier with deoxycholic acid 6,400 nmol/mL, pH 4): about 64%
